# From the nanobody polyreactivity screen of Harvey et al. (2022)
# Test: yeast display, Sf9 membrane polyspecificity reagent, FACS + sequencing; frameworks hold sequencing errors
# Procedure, shortened: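 Polyreactivity labels are assigned by the sorting gate from which each nanobody was recovered. The gates were low and high (top ~1%), set on anti-HA fluorescence for expression and streptavidin fluorescence for reagent binding. Before sorting, galactose-induced (36–48 hours) yeast display cells were stained for 1 hour at 4 °C with 10% biotinylated, detergent-solubilized Sf9 membrane reagent.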
row,Sequence,polyreactivity (PSR sort gate)
1,QVQLVESGGGLVQAGGSLRLSCAASGRIFTRYAMGWYRQAPGKERELVDGITSRGGSTYYADSVKGRYTISRDNAKNTVYLQMNSLKPEDTAVYYCNKRYTGENDYWGQGTQVTVSS,high polyreactivity
2,QVQLVESGGGLVQAGGSLRLSCAASGFIFSYYAMGWYRQAPGKERELVAAISSSGSRTYYADSVKGRFTISRDNAKNTVYLQMNSLKPEDTAVYYCAARGAAKYGYWGQGTQVTVSS,high polyreactivity
3,QVQLVESGGGLVQAGGSLRLSCAASGSIYYWYASGWYIHAPGKERELVAAITSGGSTNYADSVKGRFTISRDNAKNTVYLQMNSLKPEDTAVYYCAASSVLTNHDYWGQGTQVTVSS,low polyreactivity
4,KVQLVESGGGLVQAGGSLRISCAASGGIFAYNAMGWYRQAPGKEMELVASITSGGNTYYADSVKGRFTISRDNAKNTFYLQMNSLKPEDTAVYYCNARFYRSWRRYSREPGYNYWGQGTQVTVSS,high polyreactivity
5,QVQLVESGGGLVQAGGSLRLSCAASGYTFQWYDMGWYRQAPGKERELVASISWRGGSTYYADSVKGRFTISRDNAKNTVYLQMNSLKPEDTAVYYCAASLWPDYEYDYWGQGTQVTVSS,low polyreactivity
6,QVQHVESGGGLVQAGGSLRLSCAASGRIYFAYAMGWSRQAPGKERELVASITSGGSTNYADSVKGRFTISRDNGKNTLYLQMNSLKPEDTAVYYCAARSRFSNLYGRFYYWGQGTQVTVSS,high polyreactivity
7,QVQLVESGGGLVQAGGSLRLSCAASGSTFKAYAMGLYRPAPGKERELVAAITRRGTSTYYADSVKGRFTISRDNAKNTVYLQMNSLKPEDTAVYYCNAKYVSDRSSAVSFDYWGQGTQVTVSS,low polyreactivity
8,QVQLVESGGGIVQAGGSLRLSCADSGSTFRDNAMGLYRQAPGKERELVAAITVIDGTTYYADSVKGRFTISRDNAKNTVYLQMNSLKPEDTAVYYCAADTIWYEYYYWGQGTQVTVSS,low polyreactivity
9,QVQLVETGGGLVQAGGSLRLSCAASGIIIGYYAMGWYRQAPGKEREMVAAINQDGSSTYYADSVKGRFTISRDNAKNTVYLQMNSLTPEDTAVYYCNARGVPRQDARMGYWGQGTQVTVSS,low polyreactivity
10,QVQLVESGGGLVQAGGSLRLSCAASGFIFVHNAMGWYRQAPGKERELVATISRRGGSTYYADSVKGRFTISRDNAKNTVYLQMNILKPEDTAVYYCAARTYGYYLYDYWGQGTQVTVSS,high polyreactivity
11,QVQLVESGGGLVQAGGSLRLSCAASGNTFDVYAMGWYRQAPGKEREFVARISGRVGSTYYADSVKGRFTISRDNAKNTVYLQMNSLKPEDTAVYYCAARGRVKYVYGGFGYWGQGTQVTVSS,high polyreactivity
12,QVQLVESGGGLVQAGGSLRLSCAASGRTLRTYAMGWSRQAPGKERELVAAITSSGGRTYYADSVKGRFTISRDNAKNTVYLQMNSLKPEDTAVYYCAAARYYYGGDYWGQGTQVTVSS,high polyreactivity
13,QVQLVESGGGLVLAGGSLRLSCAASGRSSSSYAMGWYRQAPGKEREFVAAIRSSGGSTSYADSVKGRFTISRDNAKNTVYLQMNSLKPEDTAVYYCAVRKHFVVSYDYWGQGTQVTVSS,high polyreactivity
14,QVQLVESGGGLVQAGGSLRLSCAASGFISNDNAMGWYRQAPGKERELVATIDISDASTYYADSVKGRFTISRDNAKNTVYLQMNSLKPEDTAVYYCAAESDEWFTWYWYGYWGQGTQVTVSS,low polyreactivity
15,QVQLVESGGGLVQAGRSLRLLSAASGSSIYFNGMGWYRQAPGKERELVAAITSGGSTDYADSVKGRFTISRDNEKNSVYLLMYSLKPEDTAVYYCNVQNGDRQITGYDYWGLGTQVTVSS,low polyreactivity
16,QVQLVESGGGLVQAGGSLRLSCAASGNIFDLYAMGWYRQAPGKERELVAAITRSSSRTYYADSVKGRFTISRDNAKNTVYLQMNSLKPEDTAVYYCRAKQVNRFDYWGQGTKVTVSS,high polyreactivity
17,QVQLVESGGGLVQAGGSLRLICAASGRIFRYYAMGWSRQAPGKERELVAAIRSASSTYYADSVNGRFTISRDNAKITVYLKMNSLIPEDTSVYYCADRLYGVYKRRYYYWGQGTQVTVSS,high polyreactivity
18,QVQLVESGGGLVQAGGSLRLSCAASGSIFSYYAMGWYRQAPGKERELVAAISWTGGSTYYADSVKGRFTISRDNAKNTVYLQMNSLKPEDTAVYYCAADSPRSDRDSYDYWGQGTQVTVSS,high polyreactivity
19,QVQLVESGGGLVQAGGSLRLSCAASGSTMLDYAMGWYRQAPGKERELVAAISWSGGSTRYADSVKGRFTISRDNAKNTVFLQMNSLKPEDTAVYYCAATGFSYRYFQTRDYWGQGTQVTVSS,high polyreactivity
20,QVQLVESGGGLVQAGGSLRLSCAASGSIFWGNAMGWYRQAPGKERELVAAIDWSGGSTYYADSVKGRFTISRDNAKNTVYLQMNSLKPEDTAVYYCAASGRYDYDYWGQGTQVTVSS,low polyreactivity
21,QVQLVESGGGLVQAGGSLRLSCAASGRIFARNAMGWYRQAPGKERELVAVITSRGGSTYYADSVKGRFTISRDNAKNTVYLQMNSLKPEDTAVYYCAARYSGEYGYWGQGTQVTVSS,high polyreactivity
22,QVQLVESGGGLVQAGVSLRLICAATGSIFWRKTKGWYRQAPGKEREFVAAISTSGSTYYADSVKGRFTISRDNAKNTVYLKMNSLKPEDTAVYYCAADASRGYQREGGYWGQGTQVTVSS,high polyreactivity

row,Sequence,polyreactivity (PSR sort gate)
1,QVQLVESGGGLVQAGGSLRLSCAASGTFAGNAIGWYRQAPGKERELVAAINSGGSTNYADSVKGRFTISRDNAKNTVYLQMNSLKPEDTAVYYCAADSVWSPVDYDYWGQGSQVTVSS,low polyreactivity
2,QVQLVESGGGLVQAGGSLRLSCAASGSIFVQYDMGWYRQAPGKERELVAAISWSGGSTYYADSVKGRFTISRDNAKNTVYLQMNTLKPEDTAVYYCAARARLWYFSYGYWGQGTQVTVSS,low polyreactivity
3,QVHLVESGGGLVQAGGSLRLSCAASGSICNPYAMGWYRQAPGKEGELVAAINRGGTSTYYADSVKGRFTISRDNAKNNVYLQMNSLKPEDTAVYYCNADYPYYEDGDTVRDDYWGQGTQVTVSS,low polyreactivity
4,QLQLVESGGGLVQAGGSLRLSCAASGRTFYVNAMGWYRQAHGKERELVARISSSGITYYAVSVKGRFTISRDNAKNTVYLQMNSLKPEDTAVYYCAAGPWFYYWGQGTQVTVSS,low polyreactivity
5,QVQLVESGGGLVQAGGSLRLSCAASGGIFFYSAMGWYRQAPGTERELVAAISYSGGSTYYADSVKGRFTISRDIAKNTVYLQMISLKPEDTAVYYCAADVYSESKSGIYEYWGQGTQVTVSS,low polyreactivity
6,QVQLVESGGVLVQAGGSLRLSCAASGSIFSSNAMGWYRQAPGKERELVAAISSSGGSTYYADSVKGRFTISRDNAKNTVYLQMNSLKPEDTAVYYCATGKQVYGHYYWGQGTQVTVSS,low polyreactivity
7,QVQLVESGGGLVQAGGSLRLSCAASGGTFPFYAMGWYRQAPGKERELVAAITFTTSSTYYADSVKGRFTISRDNAKNTVYLQMNSLKPEDTAVYYCAVDYGWYSSYYREYDYWGQGTQVTVSS,low polyreactivity
8,QVQLVESGGGLVQAGGSLRLSCAASGRTFSFYAMGWYRPAPGKERELVAAISSGTRTYYADSVKGRFTISRDNAKNTFYLQMNSLKPEDTAVYYCAARPKWTASWYYYWGQGTQVTVSS,high polyreactivity
9,QVQLVESGGGLVQAGGSLRLSCAASGSIFYDNAMGWYRQAPGKERELVASIRWSGDSTYYADSVKGRFTISRDNAKNTVYLQMNSLKPEDTAVYYCAADPVEPYFTAIAYDFWGQGTQVTVSS,low polyreactivity
10,QDQHVESGGGLVQAGGSLRLSCAASGFTFDFYAMGWYRQAPGKERELVAAISKNDGTTYYADSVKGRFTISRDNAKNTVYLQMNSLKPEDTGVYYCAAESGYPVYTYVSSGDYWGQGTQVTVSS,low polyreactivity
11,QVQLVESGGGLVQAGGSLRLSCAASGFTFAMNAMGWYRQAPGKERELVAAITFSGGSTYADSVKGRFTISRDNAKNTVYLQMNSLKPEDTAVYYCNAGGDGVATGYDYWGQGTQVTVSS,low polyreactivity
12,QVQLVESGGGLVQAGGSLRLSCAASGSIFRYYAMGWYRQAPGKERELVARISRNAGRTYYADSVKGRFTISRDNAKNTVYLQMNSLKPEDTAVYYCAADGSKPYAMDYWGQGTQVTVSS,high polyreactivity
13,QVQLVESGEGLVQAGGSLRLSCAASGSIFSLNAMGWYRQAPGKERELVAAISGRGGSTYYADSVKGRFTISRDNAKNTVYLQMNSLKPEDTAVYYCAARFSRTFLGYYYWGQGTQVTVSS,high polyreactivity
14,QVQLVESGGGLVQAGGSLRLSCAASGRSFTSNTMGWYRPAPGKERELVAAITSSGGSMYYADSVKGRFTISRDNANNTVYLQMNSLKPEDTAVYYCAADTIGYHYWYDYWGQGTQVTVSS,low polyreactivity
15,QVQLVESGGGLVQAGGSLRLSCAASGRTFVSYDMGWYRQAPGKERELVAAITYSGGSSTYYADSVKGRFTISRDNAKNTVYLQMNSLKPEDTAVYYCATDYSLSFELDYWGQGTQVTVSS,low polyreactivity
16,QVQLVESGGGLVQAGGSLRLSCAASGFTFWQYAMGWYRQAPGKERELVAAITWDGGSTYYADSVKGRFTISRDNAKNTVYLQMNSLKPEDTAVYYCAKLFGGTYYEYDYWGQGTQVTVSS,low polyreactivity
17,QVQLVESGGGIVQAGRSLRLSCAASGNTFYLYAMGWYRQAPGKERELVATITSGGRTTYADSVKGRFTISRDNAKNTVYLQMNSLKPEDTAVYYCAARRVQYYGWGGMEYWGQGTQVTVSS,high polyreactivity
18,QVQLVESGGGVVQAGGSLLLSCAASGRIFWYYAMGWYRQAHGKERELVATITRGGNTYFADSVKGRFTISRDNAKNTVYLQMNSLKPEDNAVYYCAASQRYSVIYYGFSEYDYWGQGTQVTVSS,high polyreactivity
19,QVQLVESGGGLVQAGGSLRLSCAASGSIFEKNAMGWYRQEPGKEWELFAAISSSGGRTNYADSVKGRFTISRDNAKNTVYLHMNSLKPEDTAVYYCAAYRRGHRYTGYEYWGQGTQVTVSS,high polyreactivity
20,QVQLVESGGGLVQAGGSLPLRCAASGITFYGYTMGWYRQAPGKERELVAAITSVGSTYYADSVKGRFTISRDNAKNTVYLQMNSLKPEDTAVYYCNARPKFRTYNYWGQGTQVTVSS,high polyreactivity
21,QVQLVESGGGLVQAGGSLRLSCAASGRTFQRYTMGWYRPAPGKETELVAVITNGGTRTYYADYVKGRLTISRDYAKNTVYLQMNSLKPEYTAVYYCAARVRYTANYDYWGQGTQVTVSS,high polyreactivity
